In patent US20200129634A1:
Non-standard residues stand in square brackets, D forms with d. No end group written: not given here.

How the values were obtained:
human serum proteins = experiment: cell-based or functional assay
D34 (D38(A13K/A16K)) = experiment: RP-HPLC temperature profiling 5-77 C, pH 2, self-association (dimerization/oligomerization) relative to random coil control RC
D35 (D39(A13K/A16K)) = experiment: as above
D36 (D40(A13K/A16K)) = experiment: as above
D84 (D33(A1K)) [1] = experiment: RP-HPLC temperature profiling (0.25% B/min gradient), Mix 1, self-association relative to RC
D84 (D33(A1K)) [2] = experiment: RP-HPLC temperature profiling (0.25% B/min gradient), Mix 3, self-association relative to RC
D84 (D33(A1K)) [3] = experiment: RP-HPLC temperature profiling (0.25% B/min gradient), Mix 4, self-association relative to RC
D84 (D33(A1K)) [4] = experiment: RP-HPLC temperature profiling (0.25% B/min gradient), Mix 2, self-association relative to RC

B1: D34 (D38(A13K/A16K)) (peptide)
peptide: [dA][dL][dK][dS][dL][dL][dK][dT][dL][dS][dA][dA][dK][dK][dK][dK][dL][dA][dT][dL][dL][dK][dA][dL][dS][dK]-NH2
modifications: N-terminus assumed
SMILES: CC(C)C[C@@H](NC(=O)[C@@H](C)N)C(=O)N[C@H](CCCCN)C(=O)N[C@H](CO)C(=O)N[C@H](CC(C)C)C(=O)N[C@H](CC(C)C)C(=O)N[C@H](CCCCN)C(=O)N[C@@H](C(=O)N[C@H](CC(C)C)C(=O)N[C@H](CO)C(=O)N[C@H](C)C(=O)N[C@H](C)C(=O)N[C@H](CCCCN)C(=O)N[C@H](CCCCN)C(=O)N[C@H](CCCCN)C(=O)N[C@H](CCCCN)C(=O)N[C@H](CC(C)C)C(=O)N[C@H](C)C(=O)N[C@@H](C(=O)N[C@H](CC(C)C)C(=O)N[C@H](CC(C)C)C(=O)N[C@H](CCCCN)C(=O)N[C@H](C)C(=O)N[C@H](CC(C)C)C(=O)N[C@H](CO)C(=O)N[C@H](CCCCN)C(N)=O)[C@H](C)O)[C@H](C)O
An MIC against A. baumannii strain 649 in 25% human serum (no serum: 0.2) (human serum proteins) of 1.4 µM and a PA (self-association parameter) (D34 (D38(A13K/A16K))) of 5.7 min were found for B1 in this work.

B2: D35 (D39(A13K/A16K)) (peptide)
peptide: [dA][dL][dK][dS][dL][dL][dA][dT][dL][dS][dK][dA][dK][dK][dK][dK][dL][dK][dT][dL][dL][dA][dA][dL][dS][dK]-NH2
modifications: N-terminus assumed
SMILES: CC(C)C[C@@H](NC(=O)[C@@H](C)N)C(=O)N[C@H](CCCCN)C(=O)N[C@H](CO)C(=O)N[C@H](CC(C)C)C(=O)N[C@H](CC(C)C)C(=O)N[C@H](C)C(=O)N[C@@H](C(=O)N[C@H](CC(C)C)C(=O)N[C@H](CO)C(=O)N[C@H](CCCCN)C(=O)N[C@H](C)C(=O)N[C@H](CCCCN)C(=O)N[C@H](CCCCN)C(=O)N[C@H](CCCCN)C(=O)N[C@H](CCCCN)C(=O)N[C@H](CC(C)C)C(=O)N[C@H](CCCCN)C(=O)N[C@@H](C(=O)N[C@H](CC(C)C)C(=O)N[C@H](CC(C)C)C(=O)N[C@H](C)C(=O)N[C@H](C)C(=O)N[C@H](CC(C)C)C(=O)N[C@H](CO)C(=O)N[C@H](CCCCN)C(N)=O)[C@H](C)O)[C@H](C)O
An MIC against A. baumannii strain 649 in 25% human serum (no serum: 0.4) (human serum proteins) of 1.4 µM and a PA (self-association parameter) (D35 (D39(A13K/A16K))) of 5.5 min were found for B2 in this work.

B3: D36 (D40(A13K/A16K)) (peptide)
peptide: [dA][dL][dA][dS][dL][dL][dK][dT][dL][dS][dK][dA][dK][dK][dK][dK][dL][dK][dT][dL][dL][dK][dA][dL][dS][dA]-NH2
modifications: N-terminus assumed
SMILES: CC(C)C[C@@H](NC(=O)[C@@H](C)N)C(=O)N[C@H](C)C(=O)N[C@H](CO)C(=O)N[C@H](CC(C)C)C(=O)N[C@H](CC(C)C)C(=O)N[C@H](CCCCN)C(=O)N[C@@H](C(=O)N[C@H](CC(C)C)C(=O)N[C@H](CO)C(=O)N[C@H](CCCCN)C(=O)N[C@H](C)C(=O)N[C@H](CCCCN)C(=O)N[C@H](CCCCN)C(=O)N[C@H](CCCCN)C(=O)N[C@H](CCCCN)C(=O)N[C@H](CC(C)C)C(=O)N[C@H](CCCCN)C(=O)N[C@@H](C(=O)N[C@H](CC(C)C)C(=O)N[C@H](CC(C)C)C(=O)N[C@H](CCCCN)C(=O)N[C@H](C)C(=O)N[C@H](CC(C)C)C(=O)N[C@H](CO)C(=O)N[C@H](C)C(N)=O)[C@H](C)O)[C@H](C)O
An MIC against A. baumannii strain 649 in 25% human serum (no serum: 0.4) (human serum proteins) of 0.7 µM and a PA (self-association parameter) (D36 (D40(A13K/A16K))) of 5.6 min were found for B3 in this work.

B4: D84 (D33(A1K)) (peptide)
peptide: Ac-KLKSLLKTLSKAKAAKLKTLLKALSK-NH2
modifications: not fully specified; also: D-enantiomeric residues, extent not given here
A PA (self-association parameter) (D84 (D33(A1K)) [1]) of 6.8 min, a PA (self-association parameter) (D84 (D33(A1K)) [2]) of 6.8 min and a PA (self-association parameter) (D84 (D33(A1K)) [3]) of 6.8 min were found for B4 in this work. For the same binder, the PA (self-association parameter) (D84 (D33(A1K)) [4]) was 6.8 min.
